Consider 10 molecules from patent US20250011410A1 (INVETX, published 2025).

Where “and” joins values, the source holds several entries; their conditions need not be identical. Equal values may be shown once.

First the molecules themselves.
B1: canine NGF tagged at the C-terminus with the Flag tag (ligand)
chain: SSSHPVFHRGEFSVCDSVSVWVGDKTTATDIKGKEVMVLGEVNINNSVFKQYFFETKCRDPTPVDSGCRGIDSKHWNSYCTTTHTFVKALTMDGKQAAWRFIRIDTACVCVLSRKAGRRADYKDDDDK
notes: Baculovirus expression; also called feline NGF (processed form identical)

Test [1] has as its target T1, canine TrkA-Fc (canine; human, UniProt A0A8I3P078 33-423).
T1 construct: extracellular domain; also called Trk-Fc; canine TrkA in a dimer format; not shown: human IgG1 Fc, UniProtKB P01857
Put plainly: SPR, TrkA-Fc captured on anti-human Fc chip, NGF analyte. In general terms: Surface plasmon resonance follows binding to a sensor surface in real time, without labels.

The target in the next test is T2, canine p75-Fc (canine; human).
T2 construct: extracellular domain; also called canine p75 in a dimer format; not shown: human IgG1 Fc, UniProtKB P01857
Put plainly: SPR, p75-Fc captured on anti-human Fc chip, NGF analyte.

In test [2] the target is T3, NT-3 (R&D Systems, 267-N3-025/CF) (UniProt P20783 139-257).
T3 sequence (looked up): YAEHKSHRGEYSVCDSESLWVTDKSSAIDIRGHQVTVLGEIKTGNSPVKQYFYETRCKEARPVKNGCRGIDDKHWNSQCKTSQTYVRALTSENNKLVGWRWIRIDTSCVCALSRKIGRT
Put plainly: multiplexed bead assay, flow cytometry. (Flow cytometry measures light scatter and fluorescence of single cells or particles in a stream.)

In test [3] the target is T4, BDNF (R&D Systems, 248-BDB-050/CF) (UniProt P23560 129-247).
T4 sequence (looked up): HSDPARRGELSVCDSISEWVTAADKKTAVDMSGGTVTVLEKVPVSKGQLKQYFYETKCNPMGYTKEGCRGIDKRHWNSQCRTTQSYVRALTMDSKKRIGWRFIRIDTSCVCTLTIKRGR
As to the kind of experiment: multiplexed bead assay, flow cytometry.

Test [4] deals with T5, human NGF (R&D Systems, 256-GF-100/CF) (human, UniProt P01138 122-241).
T5 construct: Conjugated to beads or fluorescently labelled; also called human NGF antigen
Put plainly: multiplexed bead assay, flow cytometry.

For test [5], the target named is B1. Put plainly: SPR; antibody amine-coupled to HC30M sensor chip, canine NGF-Flag as analyte.
The target in test [6] is canine NGF with a strep-tag at the C-terminus (canine, UniProt A0A8I3PYI3 122-241). Put plainly: cell-based or functional assay.
Test [7] addresses B1. Put plainly: SPR, antibody amine-coupled, NGF analyte.
In test [8] the target is B1. Put plainly: SPR Biacore T200, antibody captured on protein A, NGF analyte.
Test [9] addresses B1. Put plainly: SPR Biacore T200, antibody captured on protein A, NGF analyte; fitted KD, one-to-one model.
For test [10], the target named is T1, canine TrkA-Fc. As to the kind of experiment: SPR, receptor-Fc captured on anti-human Fc chip.
For test [11], the target named is B1. Put plainly: SPR, antibody captured on goat anti-cat IgG, single cycle kinetics, NGF analyte.
Test [12] has as its target T6, canine NGF tagged at the C-terminus with the Flag tag (canine, UniProt A0A8I3PYI3 122-241).
T6 construct: mature; Expressed with baculovirus technology; also called feline NGF (processed form identical)
As to the kind of experiment: SPR, IgG amine-coupled to HC30M chip, NGF analyte.

Test [13] deals with T7, canine NGF tagged at the C-terminus with the Flag tag (canine, UniProt A0A8I3PYI3 122-241).
T7 construct: mature; 'mature' rests on the words 'processed form'; also called feline NGF (processed form identical)
Put plainly: SPR, Biacore T200; antibody captured on anti-feline CM5 chip, NGF as analyte; 1:1 model.

T1 sequence (A0A8I3P078 entry or part of it): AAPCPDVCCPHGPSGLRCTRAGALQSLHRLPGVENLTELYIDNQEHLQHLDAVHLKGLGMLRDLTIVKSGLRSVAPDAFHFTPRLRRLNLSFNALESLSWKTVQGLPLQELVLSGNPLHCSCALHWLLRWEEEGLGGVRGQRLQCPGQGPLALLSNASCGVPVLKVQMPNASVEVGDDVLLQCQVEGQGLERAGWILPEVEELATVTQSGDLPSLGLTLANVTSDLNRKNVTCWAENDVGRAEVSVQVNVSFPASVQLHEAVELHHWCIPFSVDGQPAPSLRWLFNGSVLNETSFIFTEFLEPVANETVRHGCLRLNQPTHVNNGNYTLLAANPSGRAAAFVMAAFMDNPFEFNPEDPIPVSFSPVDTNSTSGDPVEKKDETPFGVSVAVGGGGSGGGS
T5 sequence (P01138 122-241 limits assumed): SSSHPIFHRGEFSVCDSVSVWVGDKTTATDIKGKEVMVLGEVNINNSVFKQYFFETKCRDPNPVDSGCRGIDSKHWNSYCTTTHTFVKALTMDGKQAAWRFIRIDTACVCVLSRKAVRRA

Turning to B1, in the test with canine TrkA-Fc [1], the Kd (commonly the constant that tells how readily two partners part at equilibrium) was 0.013 nM and 0.0066 nM; the koff (usually a measure of how fast the partners let go of each other) is 0.00017 s⁻¹ and 0.00016 s⁻¹; the kon (as a rule, the second-order rate constant of association) was 1.3e+07 M⁻¹ s⁻¹ and 2.4e+07 M⁻¹ s⁻¹. Also, the Kd with canine p75-Fc was 3.7 nM and 2.7 nM.

B2: rat antibody 2166 (antibody, V domains shown)
VH: QVQLKESGPGLVQPSQTLSLTCTVSGLSLTSNSVSWIRQPPGKGLEWMGVIWSNGGTDYNSAIESRLSINRDTSKSQVFLKMNSLQPEDTAMYFCASIYYYDADYLHWYFDFWGPGTMVTVSS
VL: DIQMTQSPASLSASLGETVSIECLASEGISNSLAWYQLKPGKSPQFLIYATSSLQDGVPSRFSGSGSGTQYSLKISGMQPEDEGVYYCQQGYKFPLTFGSGTKLKIK
In the case of B2, the binding result in [2] is “no binding”. In addition, in [3], the binding result was “no binding”. Also, the “fold over background (MFI normalized over isotype control)” value in [4] was over 59 fold. This molecule also had a Kd in test [5] of 0.042 nM. Further, in test [6], the “IC50 (read off the curve): % inhibition of canine NGF-driven TF-1 cell proliferation” value was about 0.03 nM. In test [7], this molecule displayed a Kd of at most 0.0042 nM, a koff of at most 1e-05 s⁻¹ and a kon of 2.38e+06 M⁻¹ s⁻¹.

B3: canine 2166 chimeric antibody (antibody, V domains shown)
VH: QVQLKESGPGLVQPSQTLSLTCTVSGLSLTSNSVSWIRQPPGKGLEWMGVIWSNGGTDYNSAIESRLSINRDTSKSQVFLKMNSLQPEDTAMYFCASIYYYDADYLHWYFDFWGPGTMVTVSS
VL: DIQMTQSPASLSASLGETVSIECLASEGISNSLAWYQLKPGKSPQFLIYATSSLQDGVPSRFSGSGSGTQYSLKISGMQPEDEGVYYCQQGYKFPLTFGSGTKLKIKR
In the case of B3, in test [8], the koff is under 1e-05 s⁻¹ and the kon is 1.2e+07 M⁻¹ s⁻¹. For the same molecule, the Kd in [9] was at most 0.05 nM. Also, the binding result in the test with canine TrkA-Fc [10] is recorded as “no binding (tested: 12.5 nM to 100 nM)”.

B4: felinized clone 101 (antibody, V domains shown)
VH: DVQLVESGGDLVKPGGSLRLTCVASGLSLTSSSMSWVRQAPGKGLQWVSTIYSNGGTYYTDSVKGRFTISKDNAENTLYLQMNNLKTEDTATYYCASIYYYDADYLHWYFDFWGQGALVTVSS
VL: EIQMTQSPTSLSASVGDRVTITCRASEGISNNLSWYQQTPGKAPKLLIYATSNLHSGVPSRFSGSGSGTDFTLTISSLQPEDFATYYCQQGYKWPLTFGGGTKLEIT
On to B4, for which, in test [11], binding was characterised by a dissociation constant (Kd) of 7.8 nM, the koff amounted to 0.003 s⁻¹ and the kon is 380000 M⁻¹ s⁻¹.

B5: felinized clone 101 (IgG) (antibody, V domains shown)
VH: DVQLVESGGDLVKPGGSLRLTCVASGLSLTSSSMSWVRQAPGKGLQWVSTIYSNGGTYYTDSVKGRFTISKDNAENTLYLQMNNLKTEDTATYYCASIYYYDADYLHWYFDFWGQGALVTVSS
VL: EIQMTQSPTSLSASVGDRVTITCRASEGISNNLSWYQQTPGKAPKLLIYATSNLHSGVPSRFSGSGSGTDFTLTISSLQPEDFATYYCQQGYKWPLTFGGGTKLEIT
In [12], B5 registered a Kd of 2.1 nM, a koff of 0.00022 s⁻¹ and a kon of 110000 M⁻¹ s⁻¹.

B6: SC-184_110-Arg (antibody, V domains shown)
VH: DVQLVESGGDLVKPGGSLRLTCVASGLSLTSASMSWVRQAPGKGLQWVSTIYSNRGTYYTDSVKGRFTISKDNAENTLYLQMNNLKTEDTATYYCASIYYYEAEYLHWYFDFWGQGALVTVSS
VL: EIQMTQSPTSLSASVGDRVTITCRASEGISKNLSWYQQTPGKAPKLLIYATDNLHSGVPSRFSGSGSGTDFTLTISSLQPEDFATYYCQQGWKWPLTFGGGTKLEIT
notes: SC-184_110 containing the G55R mutation in VH; feline antibody captured on an anti-feline chip
With B6, in test [13], the Kd stood at 0.142 nM, the koff amounted to 5.48e-05 s⁻¹ and the kon was found to be 387000 M⁻¹ s⁻¹.

B7: SC-184_110 (antibody, IgG1a, V domains shown)
VH: DVQLVESGGDLVKPGGSLRLTCVASGLSLTSASMSWVRQAPGKGLQWVSTIYSNGGTYYTDSVKGRFTISKDNAENTLYLQMNNLKTEDTATYYCASIYYYEAEYLHWYFDFWGQGALVTVSS
VL: EIQMTQSPTSLSASVGDRVTITCRASEGISKNLSWYQQTPGKAPKLLIYATDNLHSGVPSRFSGSGSGTDFTLTISSLQPEDFATYYCQQGWKWPLTFGGGTKLEIT
notes: also called SC-110
In test [13], B7 displayed a Kd of 0.773 nM, a koff of 0.00038 s⁻¹ and a kon of 492000 M⁻¹ s⁻¹.

B8: SC-184_102 (antibody, IgG1a, V domains shown)
VH: DVQLVESGGDLVKPGGSLRLTCVASGLSLTSNSMSWVRQAPGKGLQWVSTIWSNGGTYYTDSVKGRFTISKDNAENTLYLQMNNLKTEDTATYYCASIYYYEAEYLHWYFDFWGQGALVTVSS
VL: EIQMTQSPTSLSASVGDRVTITCRASKGISNNLSWYQQTPGKAPKLLIYAQSNLHSGVPSRFSGSGSGTDFTLTISSLQPEDFATYYCQQGYKWPLTFGGGTKLEIT
Molecule B8 displayed a kon in test [12] of 210000 M⁻¹ s⁻¹.

B9: SC-184_110 (antibody, IgG1a, V domains shown)
VH: DVQLVESGGDLVKPGGSLRLTCVASGLSLTSASMSWVRQAPGKGLQWVSTIYSNGGTYYTDSVKGRFTISKDNAENTLYLQMNNLKTEDTATYYCASIYYYEAEYLHWYFDFWGQGALVTVSS
VL: EIQMTQSPTSLSASVGDRVTITCRASEGISKNLSWYQQTPGKAPKLLIYATDNLHSGVPSRFSGSGSGTDFTLTISSLQPEDFATYYCQQGWKWPLTFGGGTKLEIT
Turning to B9, in [12], binding was characterised by a dissociation constant (Kd) of 0.36 nM, the koff was found to be 3.6e-05 s⁻¹ and the kon turned out to be 160000 M⁻¹ s⁻¹.

B10: SC-184_76 (antibody, IgG1a, V domains shown)
VH: DVQLVESGGDLVKPGGSLRLTCVASGLSLTSDSMSWVRQAPGKGLQWVSTLWSNGGTYYTDSVKGRFTISKDNAENTLYLQMNNLKTEDTATYYCASIYYYEADYLHWYFDFWGQGALVTVSS
VL: EIQMTQSPTSLSASVGDRVTITCRASEGIANNLSWYQQTPGKAPKLLIYATSNLHSGVPSRFSGSGSGTDFTLTISSLQPEDFATYYCQQGFKWPLTFGGGTKLEIT
With B10, in test [12], the Kd was 0.25 nM, the koff was determined as 6.9e-05 s⁻¹ and the association rate constant (kon) was determined as 270000 M⁻¹ s⁻¹.
